Assay results: doi:10.1101/2023.07.14.549122

T1: short pAgo (SPARTA);TIR-APAZ (SPARTA) (Crenotalea thermophila;Crenotalea …, UniProt A0A1I7NFD7;A0A1I7NFG5 1-507;1-450, |)
T1 sequence 1: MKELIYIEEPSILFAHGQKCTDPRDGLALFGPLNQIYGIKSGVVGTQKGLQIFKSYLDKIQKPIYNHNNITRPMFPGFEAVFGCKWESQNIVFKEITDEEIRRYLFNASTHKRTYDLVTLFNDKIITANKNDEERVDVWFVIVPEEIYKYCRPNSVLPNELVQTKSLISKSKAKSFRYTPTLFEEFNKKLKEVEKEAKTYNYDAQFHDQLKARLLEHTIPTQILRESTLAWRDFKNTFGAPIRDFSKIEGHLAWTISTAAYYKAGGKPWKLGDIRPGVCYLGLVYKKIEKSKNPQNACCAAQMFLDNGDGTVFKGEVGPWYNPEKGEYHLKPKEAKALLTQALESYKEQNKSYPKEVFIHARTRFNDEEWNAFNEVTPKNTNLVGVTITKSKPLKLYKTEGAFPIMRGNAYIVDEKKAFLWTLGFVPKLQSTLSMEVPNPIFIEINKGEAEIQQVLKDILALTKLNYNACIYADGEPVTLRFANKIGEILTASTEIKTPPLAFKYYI
T1 sequence 2: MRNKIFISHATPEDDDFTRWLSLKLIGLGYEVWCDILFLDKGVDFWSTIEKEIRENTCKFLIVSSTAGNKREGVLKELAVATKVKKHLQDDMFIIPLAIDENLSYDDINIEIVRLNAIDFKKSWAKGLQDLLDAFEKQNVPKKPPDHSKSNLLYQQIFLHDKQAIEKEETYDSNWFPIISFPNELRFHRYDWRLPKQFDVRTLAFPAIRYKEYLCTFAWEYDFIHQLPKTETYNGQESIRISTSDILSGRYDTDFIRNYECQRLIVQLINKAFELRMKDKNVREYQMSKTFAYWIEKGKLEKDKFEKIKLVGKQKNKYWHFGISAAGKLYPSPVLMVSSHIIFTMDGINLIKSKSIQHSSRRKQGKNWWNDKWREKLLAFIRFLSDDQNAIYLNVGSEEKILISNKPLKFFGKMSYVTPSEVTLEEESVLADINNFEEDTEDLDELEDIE


Key:
[1] = target: Crenotalea thermophila SPARTA complex (heterodimer of TIR-APAZ and short pAgo) (Crenotalea thermophila); test: cryo-EM structure
[2] = target: T1, short pAgo (SPARTA);TIR-APAZ (SPARTA); test: cryoEM structure

stoichiometry N [1]	Molecule	binding result [2]
4	Crenotalea thermophila SPARTA complex (heterodimer of TIR-APAZ and short pAgo)	–
–	gRNA-target ssDNA (25 nt target) (DNA:RNA, 5'-phosphate on gRNA) RNA: AAACGGCUCUAAUCUAUUAGU DNA: CAACTAATAGATTAGAGCCGTTTAT	binds
